# According to article PMC12636033, “Chemical Engineering of Transcription Factors Uncovered Cell-Permeable μMax Modulators”:
# B1: dBr_Jan07_16464 (dsDNA)
# DNA 1: AGATCCAACGAGAGTTATGGACAAACTGGTCCTACAGTCTGTGTTCCGTTGTCCGTGCTG
# DNA 2: CAGCACGGACAACGGAACACAGACTGTAGGACCAGTTTGTCCATAACTCTCGTTGGATCT
# B2: dBr_Jan07_22788 (dsDNA)
# DNA 1: TTGTTTCGCATCGCTAGGCATTGATAACGGAAGCTGGTCTGTGTTCCGTTGTCCGTGCTG
# DNA 2: CAGCACGGACAACGGAACACAGACCAGCTTCCGTTATCAATGCCTAGCGATGCGAAACAA
# B3: dBr_Jan07_39455 (dsDNA)
# DNA 1: TGAAAGACCTTAGATGGGCTTGTCTCTTGGCGTTTGGTCTGTGTTCCGTTGTCCGTGCTG
# DNA 2: CAGCACGGACAACGGAACACAGACCAAACGCCAAGAGACAAGCCCATCTAAGGTCTTTCA
# B4: dBr_Jan07_19630 (dsDNA)
# DNA 1: AAGCGAGCAGATAAGCCTAAGCCCGAGCTGAACAAAGTCTGTGTTCCGTTGTCCGTGCTG
# DNA 2: CAGCACGGACAACGGAACACAGACTTTGTTCAGCTCGGGCTTAGGCTTATCTGCTCGCTT
# B5: dBr_Jan07_10789 (dsDNA)
# DNA 1: ACGAGTGGCCCTCGCATCGCGGAAGCTAGACTGATTGTCTGTGTTCCGTTGTCCGTGCTG
# DNA 2: CAGCACGGACAACGGAACACAGACAATCAGTCTAGCTTCCGCGATGCGAGGGCCACTCGT
# B6: dBr_Jan07_04879 (dsDNA)
# DNA 1: ATAACGGCCCGCCTGGACTGATACTCTGTCGCACCAGTCTGTGTTCCGTTGTCCGTGCTG
# DNA 2: CAGCACGGACAACGGAACACAGACTGGTGCGACAGAGTATCAGTCCAGGCGGGCCGTTAT
# B7: dBr_Jan07_38419 (dsDNA)
# DNA 1: ATTGCTCAGTGACACAGATATGAAGCGCTATGCATCGTCTGTGTTCCGTTGTCCGTGCTG
# DNA 2: CAGCACGGACAACGGAACACAGACGATGCATAGCGCTTCATATCTGTGTCACTGAGCAAT
# B8: dBr_Jan07_17648 (dsDNA)
# DNA 1: TTGCGCCCCCAGTCCCGGATATCATAGGAACGAGGAGTCTGTGTTCCGTTGTCCGTGCTG
# DNA 2: CAGCACGGACAACGGAACACAGACTCCTCGTTCCTATGATATCCGGGACTGGGGGCGCAA
# B9: dBr_Jan07_33794 (dsDNA)
# DNA 1: TATTAGAATGTCAGCTCTCAATCACGTGATTCGGAAGTCTGTGTTCCGTTGTCCGTGCTG
# DNA 2: CAGCACGGACAACGGAACACAGACTTCCGAATCACGTGATTGAGAGCTGACATTCTAATA
# B10: dBr_Jan07_39645 (dsDNA)
# DNA 1: AGATCAAAACGTAAGACGACAGGCGAACTTCAGTAAGTCTGTGTTCCGTTGTCCGTGCTG
# DNA 2: CAGCACGGACAACGGAACACAGACTTACTGAAGTTCGCCTGTCGTCTTACGTTTTGATCT
# B11: dBr_Jan07_10036 (dsDNA)
# DNA 1: CCGCGGACAGGTTCAGCCATCCGACTGCTACGCACAGTCTGTGTTCCGTTGTCCGTGCTG
# DNA 2: CAGCACGGACAACGGAACACAGACTGTGCGTAGCAGTCGGATGGCTGAACCTGTCCGCGG
# B12: dBr_Jan07_26545 (dsDNA)
# DNA 1: ACTGCGCCGGAGAGTTCAACGAACTACTACGTCGAAGTCTGTGTTCCGTTGTCCGTGCTG
# DNA 2: CAGCACGGACAACGGAACACAGACTTCGACGTAGTAGTTCGTTGAACTCTCCGGCGCAGT
# B13: dBr_Jan07_32293 (dsDNA)
# DNA 1: TCGCGGCTCGAAGCACCCTCCCCAGGGGCATCAGCAGTCTGTGTTCCGTTGTCCGTGCTG
# DNA 2: CAGCACGGACAACGGAACACAGACTGCTGATGCCCCTGGGGAGGGTGCTTCGAGCCGCGA
# Target: WT Max (Homo sapiens, UniProt P61244-2 13-93, M65Nle, norleucine written as M; other non-natural residues written as X)
# Experiment: PBM; 50-200 nM protein; PBS, 2% milk, BSA, salmon testes DNA, 0.02% Triton X-100
# Details: chain copies: 2; label: surface-attached array probe
# Chain of WT Max (P61244 other isoform, or with tags, fused parts or gaps M65Nle): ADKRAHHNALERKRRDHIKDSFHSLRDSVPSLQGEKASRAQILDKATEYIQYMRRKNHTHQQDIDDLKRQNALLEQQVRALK
row,Binder,binding signal
1,B1,"-1 robust z of log adjusted intensity (ours), mean of two arrays"
2,B2,"-0.82 robust z of log adjusted intensity (ours), mean of two arrays"
3,B3,"-0.88 robust z of log adjusted intensity (ours), mean of two arrays"
4,B4,"-0.87 robust z of log adjusted intensity (ours), mean of two arrays"
5,B5,"-0.92 robust z of log adjusted intensity (ours), mean of two arrays"
6,B6,"-0.92 robust z of log adjusted intensity (ours), mean of two arrays"
7,B7,"-0.96 robust z of log adjusted intensity (ours), mean of two arrays"
8,B8,"-1.18 robust z of log adjusted intensity (ours), mean of two arrays"
9,B9,"4.69 robust z of log adjusted intensity (ours), mean of two arrays"
10,B10,"-1.15 robust z of log adjusted intensity (ours), mean of two arrays"
11,B11,"-0.76 robust z of log adjusted intensity (ours), mean of two arrays"
12,B12,"-0.92 robust z of log adjusted intensity (ours), mean of two arrays"
13,B13,"-0.93 robust z of log adjusted intensity (ours), mean of two arrays"
